Drawing on PMC2908990 (Molecular cell, 2009), this text covers Kd, koff and kon for two molecules.

This experiment addresses BiP, murine sequence (hamster BiP mutated to the murine sequence) (murine, UniProt P20029 20-655). Nature of the experiment: SEC. On the technique in general: SEC sorts molecules by how far they enter the pores of the column.

Chain of BiP, murine sequence (hamster BiP mutated to the murine sequence) (P20029 20-655, change not shown): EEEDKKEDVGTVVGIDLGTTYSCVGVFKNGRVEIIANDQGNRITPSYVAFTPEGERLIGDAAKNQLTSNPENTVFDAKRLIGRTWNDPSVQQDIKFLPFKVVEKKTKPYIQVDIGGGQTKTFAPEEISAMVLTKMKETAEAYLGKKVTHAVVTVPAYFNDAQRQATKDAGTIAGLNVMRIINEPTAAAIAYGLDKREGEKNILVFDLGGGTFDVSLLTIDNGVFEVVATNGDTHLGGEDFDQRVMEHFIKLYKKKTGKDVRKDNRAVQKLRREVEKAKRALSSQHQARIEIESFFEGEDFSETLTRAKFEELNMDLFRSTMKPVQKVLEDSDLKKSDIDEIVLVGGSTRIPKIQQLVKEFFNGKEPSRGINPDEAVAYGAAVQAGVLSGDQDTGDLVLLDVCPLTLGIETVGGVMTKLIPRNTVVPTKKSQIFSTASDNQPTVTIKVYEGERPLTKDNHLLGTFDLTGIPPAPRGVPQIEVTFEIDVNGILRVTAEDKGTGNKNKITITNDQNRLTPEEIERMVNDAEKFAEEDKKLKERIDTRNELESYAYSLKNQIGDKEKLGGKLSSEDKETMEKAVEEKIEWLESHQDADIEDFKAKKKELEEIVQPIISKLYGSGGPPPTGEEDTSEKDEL

B1: CH1 domain of the murine IgG1 heavy chain, reduced (domain or fragment)
chain: not shown
modifications: internal disulfide bridge not formed (reduced)
Consider B1, for which binding was put at a Kd of 4.2 ± 0.4 µM, the koff worked out at 7.83e-05 s⁻¹ and the kon turned out to be 6.83 M⁻¹ s⁻¹.

B2: CH1 domain of the murine IgG1 heavy chain, oxidized (internal disulfide bridge formed) (domain or fragment)
chain: not shown
modifications: internal disulfide bridge formed (oxidized; Cys25-Cys80)
Regarding B2, the Kd was found to be 12.6 ± 0.7 µM, the off-rate constant (koff) was 8.33e-05 s⁻¹ and the on-rate constant (kon) worked out at 4.33 M⁻¹ s⁻¹.

As a reminder, the Kd is the concentration at which binding is half-saturated. For orientation: koff means the first-order rate constant of dissociation. The low end stands for slow dissociation, the high end for fast dissociation. For orientation: kon means a measure of how fast the partners come together. High values mean faster complex formation, low ones slower complex formation.
